Reference: patent US20250121082A1 (SHANDONG BOAN BIOTECHNOLOGY, published 2025)
Where a chain is given by its changes, count along the chain named.

T1: Human CD228 protein (human, UniProt P08582 20-708, limits assumed)
T1 construct: Recombinant protein made in CHO cells, purified over a Ni column; The printed entry begins with the leader (MRGPSG...) and ends with ten His; also called hCD228; CD228-His protein
T1 sequence: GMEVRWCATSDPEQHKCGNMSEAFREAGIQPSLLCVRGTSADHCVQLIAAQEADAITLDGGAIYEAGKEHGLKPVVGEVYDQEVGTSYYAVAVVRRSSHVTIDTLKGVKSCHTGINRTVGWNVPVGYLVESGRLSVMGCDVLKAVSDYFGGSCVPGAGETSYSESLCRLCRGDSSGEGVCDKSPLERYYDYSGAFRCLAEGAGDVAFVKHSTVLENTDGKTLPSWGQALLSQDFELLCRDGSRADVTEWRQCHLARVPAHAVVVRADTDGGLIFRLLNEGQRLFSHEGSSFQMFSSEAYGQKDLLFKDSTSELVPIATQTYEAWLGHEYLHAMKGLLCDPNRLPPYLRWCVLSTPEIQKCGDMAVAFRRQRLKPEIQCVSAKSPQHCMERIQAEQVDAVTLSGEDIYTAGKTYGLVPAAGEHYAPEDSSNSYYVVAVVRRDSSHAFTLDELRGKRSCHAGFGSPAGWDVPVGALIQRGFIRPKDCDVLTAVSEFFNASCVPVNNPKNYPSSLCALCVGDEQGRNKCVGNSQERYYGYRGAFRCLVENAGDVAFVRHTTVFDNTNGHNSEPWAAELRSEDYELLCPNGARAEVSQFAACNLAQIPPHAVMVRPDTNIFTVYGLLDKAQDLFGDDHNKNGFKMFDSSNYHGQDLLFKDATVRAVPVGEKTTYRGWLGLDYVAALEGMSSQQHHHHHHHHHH

T2: CD228 protein on human melanoma SK-MEL-5 cells (human, UniProt P08582 20-709)
T2 construct: whole, on cells; Endogenous CD228 on the cell line; also called SK-MEL-5 cells (expressing CD228 proteins)
T2 sequence (looked up): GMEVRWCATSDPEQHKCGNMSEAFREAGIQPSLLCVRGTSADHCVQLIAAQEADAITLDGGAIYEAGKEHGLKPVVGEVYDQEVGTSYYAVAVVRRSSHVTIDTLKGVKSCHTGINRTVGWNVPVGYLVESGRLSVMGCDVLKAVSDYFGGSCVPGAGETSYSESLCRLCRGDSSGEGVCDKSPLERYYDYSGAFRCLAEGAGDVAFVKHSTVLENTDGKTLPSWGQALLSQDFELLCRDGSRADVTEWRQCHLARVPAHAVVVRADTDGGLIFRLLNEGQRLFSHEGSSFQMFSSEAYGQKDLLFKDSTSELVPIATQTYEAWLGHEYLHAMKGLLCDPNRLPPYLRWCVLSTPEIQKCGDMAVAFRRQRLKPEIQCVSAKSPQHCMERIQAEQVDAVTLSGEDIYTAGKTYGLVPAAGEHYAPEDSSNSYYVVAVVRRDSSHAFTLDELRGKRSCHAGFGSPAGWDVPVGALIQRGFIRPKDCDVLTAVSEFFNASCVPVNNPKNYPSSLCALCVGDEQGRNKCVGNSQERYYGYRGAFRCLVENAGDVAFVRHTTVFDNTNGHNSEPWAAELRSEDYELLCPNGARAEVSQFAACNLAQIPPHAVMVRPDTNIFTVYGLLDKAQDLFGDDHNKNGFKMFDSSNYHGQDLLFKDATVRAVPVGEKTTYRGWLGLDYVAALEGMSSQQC

B1: reference antibody hL49 (antibody, human IgG1, kappa, V domains shown)
VH: QVQLQESGPGLVKPSETLSLTCTVSGDSITSGYWNWIRQPPGKGLEYIGYISDSGITYYNPSLKSRVTISRDTSKNQYSLKLSSVTAADTAVYYCARRTLATYYAMDYWGQGTLVTVSS
VL: DFVMTQSPLSLPVTLGQPASISCRASQSLVHSDGNTYLHWYQQRPGQSPRLLIYRVSNRFSGVPDRFSGSGSGTDFTLKISRVEAEDVGVYYCSQSTHVPPTFGQGTKLEIKR
notes: also called H149; hL49 analogy
B2: CA13 (antibody, human IgG1, kappa, V domains shown)
VH: EVQLVESGGGVVQPGRSLRLSCAASGFTFSSYAMHWVRQAPGKGLEWVAVISYDGSNKYYADSVKGRFTISRDNSKNTLFLQMNSLRAEDTAVYYCARDVYHYGSRSPYYYGMDVWGQGTTVTVSS
VL: DIVMTQSPSSLSASVGDRVTITCRASQGISNYLAWFQQKPGKVPKLLIYAASTLQSGVPSRFSGSGSGTDFTLTISSLQPEDVATYYCQKYNSAPFTFGPGTKVDIKR
notes: Intact IgG1 from fully human antibody-transgenic mice
B3: CA518 (antibody, human IgG1, kappa, V domains shown)
VH: B2 VH with Y60H, A97V
VL: B2 VL with V3Q, L11V, N31S, Y32W, F36Y, V43A, T53S
notes: Intact IgG1
B4: CA67 (antibody, human IgG1, kappa, V domains shown)
VH: B2 VH with F80Y
VL: B2 VL with V3Q, G28A, F36Y, Q55H, S56P
notes: Intact IgG1
B5: CA149 (antibody, human IgG1, kappa, V domains shown)
VH: EVQLVESGGGVVQPGRSLRLSCAASGFTFSSYAMHWVRQAPGKGLEWVAVISFDGSNKYYTDSVKGRFTISRDNSKNTLYLQMNSLRAEDTAVYYCAREVPYYYGSGPFDYWGQGTLVTVSS
VL: EIVLTQSPATLSVSPGERATLSCRASQSVSSNLAWYQQKPGQAPRHLIDGASSRASGIPDRFSGSGSGTDFTLTISRLEPEDFAVYYCQQYGSSPPFTFGPGTKVDIKR
notes: Intact IgG1; also called CA149 antibody
B6: CA185 (antibody, human IgG1, kappa, V domains shown)
VH: B5 VH with F53Y, T61A
VL: EIVLTQSPGTLSLSPGERATLSCRASQSVSSSSLAWYQQKPGQAPRHLIDGASSRASGIPDRFSGSGSGTDFTLTISRLEPEDFAVYYCQQYGSSYTFGQGTKVDIKR
notes: Intact IgG1
B7: BA352 (antibody, human IgG1, kappa, V domains shown)
VH: EVQLVESGGGVVQPGRSLRLSCAASGFTFSSYAMHWVRQAPGKGLEWVAVISYDGSNKYYADSVKGRFTISRDNSKNTLYLQMNSLRAEDTAVYYCARGPYLAAAGTALTFDIWGQGTMVTVSS
VL: DIQMTQSPSAMSASVGDRVTITCRASQGINNYLAWFQQKPGKVPKRLIYAASSLQSGVPSRFSGSGSGTEFTLTISSLQPEDFATYYCLQHNSYPFTFGPGTKVDIKR
notes: Intact IgG1

These binders were tested against T1, Human CD228 protein (assay: Octet competition on His-chip CD228; competitor: CA67).
Description: (§1) CD228 proteins were immobilized on His chips at 10 μg/mL with a threshold of 0.5 nm. The first CD228 antibody (30 μg/mL) was immobilized, and the competitive binding of the second CD228 antibody (30 μg/mL) was analyzed. The Octet 8K system was used to analyze the response of antibody 2 and to determine whether antibody 1 and antibody 2 were in competition.
(§2) The final competition analysis was conducted using the following calculation method: 1—response value/blank value.

Binder	competition (1-response value/blank value)
B1	-7%
B2	100%
B3	99%
B4	102%
B5	98%
B6	99%
B7	-4%

What follows are binders tested against T1, Human CD228 protein (assay: Octet competition on His-chip CD228; competitor: CA13).
Description: as §1

Binder	Octet response value
B1	0.418
B2	-0.0011
B3	0.006
B4	-0.0065
B5	0.0117
B6	0.0046
B7	0.424

These binders were tested against T1, Human CD228 protein (assay: affinity assay (method not given)).

Binder	Kd
B5	1.99 nM

Each binder was assayed against T1, Human CD228 protein (assay: Octet competition on His-chip CD228; competitor: BA352).
Description: as §1, §2

Binder	competition (1-response value/blank value)
B1	55%
B2	-9%
B3	-5%
B4	-8%
B5	-12%
B6	-17%
B7	94%

The binders below were run against T2, CD228 protein on human melanoma … (assay: flow cytometry on SK-MEL-5 cells, fluorescent secondary antibody, MFI).
Description: To a 96-well round-bottom plate, human melanoma SK-MEL-5 cells (ATCC, HTB-70) were added with a cell density of 7E4 cells/50 μL/well. The antibodies were serially diluted with an FACS buffer (PBS, Boster Biological Technology, Catalog No. PYG0021) and added to the 96-well round-bottom plate at 50 μL/well. The plate was then incubated at 4° C. for 1 h. The supernatant was discarded after centrifugation at 400 g for 4 min. The plate was washed once with FACS buffer, before a fluorescent secondary antibody (Jackson, 109545-008) at 100 μL/well was added. The mixture was incubated at 4° C. in the dark for 30 min and centrifuged at 400 g for 4 min. The supernatant was discarded. The cells were washed once with FACS buffer, resuspended in FACS buffer at 100 μL/well, and loaded on a flow cytometer (ACEA Pharma, NovoCyte 2060) for analysis. […] The isotype reference antibody in FIG. 4 is an irrelevant antibody targeting other antigens with constant regions similar to the experimental anti-CD228 antibodies but with different variable regions.

Binder	EC50
B1	0.195 µg/mL
B2	0.083 µg/mL
B3	0.081 µg/mL
B4	0.096 µg/mL
B5	0.135 µg/mL
B6	0.123 µg/mL
B7	0.152 µg/mL

The binders below were run against T1, Human CD228 protein (assay: Octet competition on His-chip CD228; competitor: hl49).
Description: as §1

Binder	Octet response value
B1	0.0169
B2	0.353
B3	0.281
B4	0.33
B5	0.348
B6	0.356
B7	0.0006

What follows are binders tested against T1, Human CD228 protein (assay: Octet competition on His-chip CD228; competitor: CA518).
Description: as §1, §2

Binder	competition (1-response value/blank value)
B1	-3%
B2	102%
B3	101%
B4	103%
B5	98%
B6	99%
B7	-4%
